This passage reports abundance fitness results from the Human Domainome abundance scans (Beltran et al. 2025).

± gives the uncertainty stated by the source.

First the molecules themselves.
B1: RNA-binding E3 ubiquitin-protein ligase MEX3C, residues 325 to 391; numbered along this chain, Q5U5Q3 (parent)
chain: GQTTVQVRVPYRVVGLVVGPKGATIKRIQQQTHTYIVTPSRDKEPVFEVTGMPENVDRAREEIEMHI

Variants of B1 are the subject of the data set. Nature of the data set: abundance fitness (aPCA) (normalised: wild type 0, dead -1); higher = more abundant; growth selection in yeast, the domain comes from the species named. Conditions: Homo sapiens.
As for GQTTVQVRVPYRVVGLVVGPKGATIKRIQQQTHTYIVTPSLDKEPVFEVTGMPENVDRAREEIEMHI [R41L], the abundance fitness was -0.21 ± 0.06.
The value for GQTTVQVRVPYRVVGLVVGPKGATIKRIQQQTHTYIVTPSSDKEPVFEVTGMPENVDRAREEIEMHI [R41S] was -0.047 ± 0.062; that for GQTTVQVRVPYRVVGLVVGPKGATIKRIQQQTHTYIVTPSYDKEPVFEVTGMPENVDRAREEIEMHI [R41Y] was -0.212 ± 0.28; that for GQTTVQVRVPYRVVGLVVGPKGATIKRIQQQTHTYIVTPSPDKEPVFEVTGMPENVDRAREEIEMHI [R41P] was 0.071 ± 0.094.
As for GQTTVQVRVPYRVVGLVVGPKGATIKRIQQQTHTYIVTPSMDKEPVFEVTGMPENVDRAREEIEMHI [R41M], the abundance fitness is -0.168 ± 0.078.
The value for GQTTVQVRVPYRVVGLVVGPKGATIKRIQQQTHTYIVTPSDDKEPVFEVTGMPENVDRAREEIEMHI [R41D] was 0.048 ± 0.11; that for GQTTVQVRVPYRVVGLVVGPKGATIKRIQQQTHTYIVTPSFDKEPVFEVTGMPENVDRAREEIEMHI [R41F] was -0.343 ± 0.17.
Then GQTTVQVRVPYRVVGLVVGPKGATIKRIQQQTHTYIVTPSGDKEPVFEVTGMPENVDRAREEIEMHI [R41G], with -0.154 ± 0.037; and GQTTVQVRVPYRVVGLVVGPKGATIKRIQQQTHTYIVTPSNDKEPVFEVTGMPENVDRAREEIEMHI [R41N], with -0.058 ± 0.16; and GQTTVQVRVPYRVVGLVVGPKGATIKRIQQQTHTYIVTPSTDKEPVFEVTGMPENVDRAREEIEMHI [R41T], with -0.021 ± 0.083.
Regarding GQTTVQVRVPYRVVGLVVGPKGATIKRIQQQTHTYIVTPSHDKEPVFEVTGMPENVDRAREEIEMHI [R41H], the abundance fitness is -0.109 ± 0.14.
Turning to GQTTVQVRVPYRVVGLVVGPKGATIKRIQQQTHTYIVTPSCDKEPVFEVTGMPENVDRAREEIEMHI [R41C], the abundance fitness is -0.067 ± 0.082.
Then GQTTVQVRVPYRVVGLVVGPKGATIKRIQQQTHTYIVTPSVDKEPVFEVTGMPENVDRAREEIEMHI [R41V], with -0.088 ± 0.063; and GQTTVQVRVPYRVVGLVVGPKGATIKRIQQQTHTYIVTPSKDKEPVFEVTGMPENVDRAREEIEMHI [R41K], with 0.019 ± 0.15; and GQTTVQVRVPYRVVGLVVGPKGATIKRIQQQTHTYIVTPSIDKEPVFEVTGMPENVDRAREEIEMHI [R41I], with -0.15 ± 0.17.
Turning to GQTTVQVRVPYRVVGLVVGPKGATIKRIQQQTHTYIVTPPRDKEPVFEVTGMPENVDRAREEIEMHI [S40P], the abundance fitness was determined as 0.08 ± 0.072.
Turning to GQTTVQVRVPYRVVGLVVGPKGATIKRIQQQTHTYIVTPIRDKEPVFEVTGMPENVDRAREEIEMHI [S40I], the abundance fitness was -0.34 ± 0.24.
As to GQTTVQVRVPYRVVGLVVGPKGATIKRIQQQTHTYIVTPYRDKEPVFEVTGMPENVDRAREEIEMHI [S40Y], the abundance fitness is -0.137 ± 0.33.
Then GQTTVQVRVPYRVVGLVVGPKGATIKRIQQQTHTYIVTPKRDKEPVFEVTGMPENVDRAREEIEMHI [S40K], with -0.072 ± 0.081; and GQTTVQVRVPYRVVGLVVGPKGATIKRIQQQTHTYIVTPWRDKEPVFEVTGMPENVDRAREEIEMHI [S40W], with -0.215 ± 0.07.
The value for GQTTVQVRVPYRVVGLVVGPKGATIKRIQQQTHTYIVTPNRDKEPVFEVTGMPENVDRAREEIEMHI [S40N] was 0.032 ± 0.13.
Regarding GQTTVQVRVPYRVVGLVVGPKGATIKRIQQQTHTYIVTPVRDKEPVFEVTGMPENVDRAREEIEMHI [S40V], the abundance fitness was -0.229 ± 0.066.
The value for GQTTVQVRVPYRVVGLVVGPKGATIKRIQQQTHTYIVTPTRDKEPVFEVTGMPENVDRAREEIEMHI [S40T] was -0.081 ± 0.092.
Then GQTTVQVRVPYRVVGLVVGPKGATIKRIQQQTHTYIVTPGRDKEPVFEVTGMPENVDRAREEIEMHI [S40G], with 0.03 ± 0.047; and GQTTVQVRVPYRVVGLVVGPKGATIKRIQQQTHTYIVTPQRDKEPVFEVTGMPENVDRAREEIEMHI [S40Q], with -0.033 ± 0.1.
For the variant GQTTVQVRVPYRVVGLVVGPKGATIKRIQQQTHTYIVTPLRDKEPVFEVTGMPENVDRAREEIEMHI [S40L], the abundance fitness was -0.133 ± 0.057.
Then GQTTVQVRVPYRVVGLVVGPKGATIKRIQQQTHTYIVTPHRDKEPVFEVTGMPENVDRAREEIEMHI [S40H], with -0.352 ± 0.23.
For the variant GQTTVQVRVPYRVVGLVVGPKGATIKRIQQQTHTYIVTPMRDKEPVFEVTGMPENVDRAREEIEMHI [S40M], the abundance fitness was -0.016 ± 0.1.
For GQTTVQVRVPYRVVGLVVGPKGATIKRIQQQTHTYIVTPSRDKFPVFEVTGMPENVDRAREEIEMHI [E44F], the abundance fitness is -0.906 ± 0.31.
The value for GQTTVQVRVPYRVVGLVVGPKGATIKRIQQQTHTYIVTPSRDKSPVFEVTGMPENVDRAREEIEMHI [E44S] was -0.459 ± 0.16; that for GQTTVQVRVPYRVVGLVVGPKGATIKRIQQQTHTYIVTPSRDKPPVFEVTGMPENVDRAREEIEMHI [E44P] was -0.374 ± 0.18; that for GQTTVQVRVPYRVVGLVVGPKGATIKRIQQQTHTYIVTPSRDKQPVFEVTGMPENVDRAREEIEMHI [E44Q] was -0.305 ± 0.23.
Then GQTTVQVRVPYRVVGLVVGPKGATIKRIQQQTHTYIVTPSRDKAPVFEVTGMPENVDRAREEIEMHI [E44A], with -0.177 ± 0.068.
For the variant GQTTVQVRVPYRVVGLVVGPKGATIKRIQQQTHTYIVTPSRDKMPVFEVTGMPENVDRAREEIEMHI [E44M], the abundance fitness was -0.687 ± 0.25.
In the case of GQTTVQVRVPYRVVGLVVGPKGATIKRIQQQTHTYIVTPSRDKCPVFEVTGMPENVDRAREEIEMHI [E44C], the abundance fitness is -0.834 ± 0.26.
In the case of GQTTVQVRVPYRVVGLVVGPKGATIKRIQQQTHTYIVTPSRDKLPVFEVTGMPENVDRAREEIEMHI [E44L], the abundance fitness was -0.582 ± 0.094.
For the variant GQTTVQVRVPYRVVGLVVGPKGATIKRIQQQTHTYIVTPSRDKNPVFEVTGMPENVDRAREEIEMHI [E44N], the abundance fitness was -0.222 ± 0.17.
Take GQTTVQVRVPYRVVGLVVGPKGATIKRIQQQTHTYIVTPSRDKGPVFEVTGMPENVDRAREEIEMHI [E44G]: the abundance fitness was -0.492 ± 0.059.
The value for GQTTVQVRVPYRVVGLVVGPKGATIKRIQQQTHTYIVTPSRDKRPVFEVTGMPENVDRAREEIEMHI [E44R] was -0.719 ± 0.1; that for GQTTVQVRVPYRVVGLVVGPKGATIKRIQQQTHTYIVTPSRDKKPVFEVTGMPENVDRAREEIEMHI [E44K] was -0.697 ± 0.17.
